In patent US20250144229A1, “CONJUGATE OF ANTIBODY-ERIBULIN OR DERIVATIVE THEREOF, INTERMEDIATE THEREOF, PREPARATION METHOD THEREFOR, PHARMACEUTICAL COMPOSITION THEREOF AND USE THEREOF” (MEDLINK THERAPEUTICS (SUZHOU) CO., LTD., priority 2022, published 2025):
Values joined by “and” are separate entries in the source; they are usually repeats but may differ in a detail not shown here. Identical values can stand only once. Counter-ions that a name gives are not always drawn. Like-named read-outs stand apart in the source and are kept apart here. One block for each molecule: values may come before it.

Experiments:
SW480 = assay: Inhibitory activity of ADC on cell viability in vitro (CCK8), SW480; format: cell-based; conditions: Homo sapiens, SW480, 168 h, 7 days incubation
Protocol: (§1) HT29, NCI-H358 (HT29 and NCI-H358 are B7H3 positive tumor cells), SW480, A375, A549, and Calu-3 (Calu-3 is B7H3 negative tumor cells) tumor cells were digested by trypsin using conventional methods. Cells in the tube were collected and counted, then resuspended in the corresponding assay medium (containing 2% FBS), and added to a 96-well plate at 2000 to 5000 cells/well. 100 μL of ADC diluted in 2% FBS medium was added to the 96-well plate, with 3-fold serial dilution at an initial concentration of 150 µg/mL (12 concentration gradients). The plate was incubated at 37° C. under 5% CO2 for 7 days. 20 μL of CCK8 reagent was then added to each well, and the reaction was carried out for 2 to 6 hours. The plate was read on a microplate reader (detection wavelength: 450 nm). The test results are shown in Table 3-1, Table 3-2, and FIGS. 7A to 7E.

A375 = assay: Inhibitory activity of ADC on cell viability in vitro (CCK8), A375; format: cell-based; conditions: Homo sapiens, A-375, 168 h, 7 days incubation
Protocol: as §1

A549 = assay: Inhibitory activity of ADC on cell viability in vitro (CCK8), A549; format: cell-based; conditions: Homo sapiens, A549, 168 h, 7 days incubation
Protocol: as §1

HT29 = assay: Inhibitory activity of ADC on cell viability in vitro (CCK8), HT29; format: cell-based; conditions: Homo sapiens, HT-29, 168 h, 7 days incubation, B7H3 positive tumor cells
Protocol: as §1

[1] = cited from earlier work
[2] = molecular target: T1, human B7H3-4IgG-His protein (Homo sapiens, UniProt Q5ZPR3); assay: ELISA protein affinity assay of anti-B7H3 antibody, human protein; format: binding; conditions: coated protein
T1 construct: amino acids at positions 27 to 461 (Uniport protein No. Q5ZPR3-1) of human 4Ig B7H3; 6xHis (C); made in house; host or cells: HEK293F (transient, PTT5 vector)
T1 sequence (Q5ZPR3 27-461): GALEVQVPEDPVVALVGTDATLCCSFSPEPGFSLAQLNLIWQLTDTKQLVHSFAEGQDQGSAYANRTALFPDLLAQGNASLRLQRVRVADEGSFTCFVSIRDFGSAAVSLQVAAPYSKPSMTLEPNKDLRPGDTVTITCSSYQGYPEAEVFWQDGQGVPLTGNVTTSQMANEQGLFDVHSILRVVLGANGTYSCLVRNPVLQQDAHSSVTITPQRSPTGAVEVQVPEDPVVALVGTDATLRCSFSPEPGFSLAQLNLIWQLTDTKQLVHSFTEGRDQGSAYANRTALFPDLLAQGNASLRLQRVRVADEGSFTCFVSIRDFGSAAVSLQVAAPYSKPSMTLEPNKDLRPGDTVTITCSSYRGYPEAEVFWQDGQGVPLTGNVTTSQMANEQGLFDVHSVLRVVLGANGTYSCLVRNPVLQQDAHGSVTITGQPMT
Protocol: The plate was washed five times with PBST. […] The absorbance was measured at 450 nm.

MCF-7 tumor cells = assay: Cell affinity assay of anti-B7H3 antibody by FACS, MCF-7; format: binding; conditions: flow cytometry
Protocol: (§2) B7H3 protein is highly expressed in a variety of solid tumor cells. The affinity of B7H3 full human antibody to tumor cells was tested by FACS. Specific experimental procedures: MCF-7 breast cancer cells, A549 human non-small cell lung cancer cells, and PC3 human prostate cancer cells grown to logarithmic phase were digested by trypsin, and resuspended to 5*10^5 cells/mL in PBS buffer containing 2% BSA. 100 μL of cell suspension was added to a 96-well plate. […] 100 μL of antibody suspension was then added into the 96-well plate and mixed homogeneously. The plate was incubated at 4° C. for 1 hour, washed twice with pre-cooled PBS at 300 μL/well each time, and centrifuged at 500 g for 5 minutes. 1:50 fluorescent secondary antibody APC anti-human IgG or PE anti-human IgG (purchased from Biolegend) was added at 100 μL/well and mixed homogeneously. The plate was incubated at 4° C. for 0.5 hours, washed twice with pre-cooled PBS at 300 μL/well each time, centrifuged at 500 g for 5 minutes, and resuspended in 500 μL of PBS. The average fluorescence signal value was measured by Beckman flow cytometer. The EC50 value was calculated from the average fluorescence signal value.

A549 tumor cells = assay: Cell affinity assay of anti-B7H3 antibody by FACS, A549; format: binding, human; conditions: flow cytometry; middle B7H3-expressing cells
Protocol: as §2

PC-3 tumor cells = assay: Cell affinity assay of anti-B7H3 antibody by FACS, PC-3; format: binding, human; conditions: flow cytometry
Protocol: as §2

[3] = molecular target: B7H3 protein on human tumor cells (MCF-7, A549, PC-3, HT29) (human) (UniProt Q5ZPR3); assay: flow cytometry on A549 tumor cells
[4] = molecular target: B7H3 protein on human tumor cells (MCF-7, A549, PC-3, HT29) (human) (UniProt Q5ZPR3); assay: flow cytometry on A549 tumor cells; remark: listed apart in the source
[5] = molecular target: B7H3 protein on human tumor cells (MCF-7, A549, PC-3, HT29) (human) (UniProt Q5ZPR3); assay: flow cytometry on PC-3 tumor cells
[6] = molecular target: B7H3 protein on human tumor cells (MCF-7, A549, PC-3, HT29) (human) (UniProt Q5ZPR3); assay: flow cytometry on MCF-7 tumor cells
[7] = molecular target: B7H3 protein on human tumor cells (MCF-7, A549, PC-3, HT29) (human) (UniProt Q5ZPR3); assay: flow cytometry on MCF-7 tumor cells; remark: listed apart in the source
[8] = molecular target: T2, human B7H3-4IgG-His (human) (UniProt Q5ZPR3); assay: ELISA, antigen coated on the plate, anti-human Fc-HRP detection
T2 sequence: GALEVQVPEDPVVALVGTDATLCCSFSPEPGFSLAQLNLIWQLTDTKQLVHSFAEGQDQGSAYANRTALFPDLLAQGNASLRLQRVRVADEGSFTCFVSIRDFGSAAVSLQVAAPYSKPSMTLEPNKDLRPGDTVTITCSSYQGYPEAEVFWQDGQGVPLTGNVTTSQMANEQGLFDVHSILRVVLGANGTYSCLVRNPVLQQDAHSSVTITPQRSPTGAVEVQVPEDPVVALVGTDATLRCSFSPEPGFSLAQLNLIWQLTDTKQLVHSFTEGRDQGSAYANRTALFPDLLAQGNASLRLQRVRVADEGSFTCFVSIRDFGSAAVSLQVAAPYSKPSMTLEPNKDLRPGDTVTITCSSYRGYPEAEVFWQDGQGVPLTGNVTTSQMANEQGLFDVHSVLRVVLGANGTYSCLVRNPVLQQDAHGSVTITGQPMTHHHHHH

[9] = molecular target: monkey B7H3-4IgG-His (monkey); assay: as above
[10] = molecular target: T2, human B7H3-4IgG-His (human); assay: as above; remark: listed apart in the source
[11] = molecular target: monkey B7H3-4IgG-His (monkey); assay: as above; remark: listed apart in the source

Chain of B7H3 protein on human tumor cells (MCF-7, A549, PC-3, HT29) (human) (Q5ZPR3 29-534): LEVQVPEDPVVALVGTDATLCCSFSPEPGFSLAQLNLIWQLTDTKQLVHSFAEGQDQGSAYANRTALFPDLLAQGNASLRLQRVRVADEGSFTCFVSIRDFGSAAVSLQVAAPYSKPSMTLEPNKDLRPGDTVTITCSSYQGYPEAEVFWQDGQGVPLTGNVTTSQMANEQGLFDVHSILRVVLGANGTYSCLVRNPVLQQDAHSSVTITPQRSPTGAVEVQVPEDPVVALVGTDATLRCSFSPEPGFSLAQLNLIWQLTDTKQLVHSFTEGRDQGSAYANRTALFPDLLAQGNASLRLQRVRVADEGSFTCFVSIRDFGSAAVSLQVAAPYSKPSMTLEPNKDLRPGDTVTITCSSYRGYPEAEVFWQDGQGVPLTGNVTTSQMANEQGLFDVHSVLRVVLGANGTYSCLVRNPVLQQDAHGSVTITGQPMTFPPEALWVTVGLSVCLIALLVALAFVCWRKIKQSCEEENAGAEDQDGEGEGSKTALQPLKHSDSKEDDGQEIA

Molecule: C=C1C[C@@H]2CC[C@@]34C[C@H]5O[C@H]6[C@@H](O3)[C@H]3O[C@H](CC[C@@H]3O[C@H]6[C@H]5O4)CC(=O)C[C@@H]3[C@@H](OC)[C@@H](C[C@H](O)CN)O[C@H]3C[C@H]3O[C@@H](CC[C@@H]1O2)C[C@@H](C)C3=C [Eribulin, eribulin]
- IC50 (SW480): 1.38 nM
- IC50 (A375): 1.14 nM
- IC50 (A549): 0.31 nM
- IC50 (HT29): 0.2 nM

Molecule: C=C1C[C@@H]2CC[C@@]34C[C@H]5O[C@H]6[C@@H](O3)[C@H]3O[C@H](CC[C@@H]3O[C@H]6[C@H]5O4)CC(=O)C[C@@H]3[C@@H](OC)[C@@H](C[C@H](O)CN)O[C@H]3C[C@H]3O[C@@H](CC[C@@H]1O2)C[C@@H](C)C3=C [Eribulin mesylate]
- maximum tolerated dose (MTD) ([1]; intravenous infusion on day 1, 8 and 15 of a 28-day cycle, patients): 1.4 mg/m^2
- grade 3-4 adverse events: neutropenia ([1]; patients treated with eribulin mesylate): 64%

Second part, led by results:

- EC50 [2]: 0.048 nM
- EC50 (MCF-7 tumor cells; high B7H3-expressing cells): 1.71 nM and 1.36 nM
- EC50 (A549 tumor cells): 1.86 nM and 1.05 nM
- EC50 (PC-3 tumor cells; low B7H3-expressing cells): 0.618 nM
Molecule: B7H3-C1: anti-B7H3 antibody numbered M30-H1-L4 in CN103687945B
- MCF-7 tumor cells Maximum MFI (MCF-7 tumor cells): 83992 and 63194
- PC-3 tumor cells Maximum MFI (PC-3 tumor cells): 6436

- EC50 [3]: 1.86 nM
- Maximum MFI [3]: 8270
- EC50 [4]: 1.05 nM
- Maximum MFI [4]: 48000
- EC50 [5]: 0.618 nM
- Maximum MFI [5]: 6440
- EC50 [6]: 1.71 nM
- Maximum MFI [6]: 84000
- EC50 [7]: 1.36 nM
- Maximum MFI [7]: 63200
- EC50 [8]: 0.048 nM
- EC50 [9]: 0.167 nM
- EC50 [10]: 0.0519 nM
- EC50 [11]: 3.92 nM
B1: antibody B7H3-C1 (antibody, INN chains, looked up, V domains shown)
VH: QVQLVQSGAEVKKPGSSVKVSCKASGYTFTNYVMHWVRQAPGQGLEWMGYINPYNDDVKYNEKFKGRVTITADESTSTAYMELSSLRSEDTAVYYCARWGYYGSPLYYFDYWGQGTLVTVSS
VL: EIVLTQSPATLSLSPGERATLSCRASSRLIYMHWYQQKPGQAPRPLIYATSNLASGIPARFSGSGSGTDFTLTISSLEPEDFAVYYCQQWNSNPPTFGQGTKVEIK
